Data taken from the supplement of paper PMC11908140.

B1: library; numbered along this chain (parent)
chain: MRKPRAAVGSGHRKQAASQEGRQKHAKNNSQAKPSACDGLARQPEEVVLQASVSSYHLFRDVAEVTAFRGSLLSWYDQEKRDLPWRRRAEDEMDLDRRAYAVWVSEVMLQQTQVATVINYYTGWMQKWPTLQDLASASLEEVNQLWAGLGYYSRGRRLQEGARKVVEELGGHMPRTAETLQQLLPGVGRYTAGAIASIAFGQATGVVDGNVARVLCRVRAIGADPSSTLVSQQLWGLAQQLVDPARPGDFNQAAMELGATVCTPQRPLCSQCPVESLCRARQRVEQEQLLASGSLSGSPDVEECAPNTGQCHLCLPPSEPWDQTLGVVNFPRKASRKPPREESSATCVLEQPGALGAQILLVQRPNSGLLAGLWEFPSVTWEPSEQLQRKALLQELQRWAGPLPATHLRHLGEVVHTFSHIKLTYQVYGLALEGQTPVTTVPPGARWLTQEEFHTAAVSTAMKKVFRVYQGQQPGTCMGSKRSQVSSPCSRKKPRMGQQVLDNFFRSHISTDAHSLNSAAQ

Variants of: B1
Assay: 8OG:A repair function score (normalized; synonymous = 0, nonsense = -1) (normalized log-likelihood score); higher = more repair activity (WT-like)
Details: with 8OG:A DNA repair reporter (GFP) in HEK-293 MUTYH KO cells
Method: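 Saturation mutagenesis (NNN codon scan) of the MUTYH cDNA (521-aa nuclear isoform NM_001048174.1 / NP_001041639), stably expressed under doxycycline induction in HEK-293 MUTYH knockout cells. Cells were co-transfected with an 8OG:A-bearing GFP repair reporter plus mCherry and sorted 72 h later into GFP+ and GFP− bins, three replicates per tile. The Rosace log2 enrichment (GFP+ vs GFP−) was converted per tile to a normalized function score with synonymous variants centered at 0 and nonsense variants (codons 1-471) at -1; low-abundance variants were removed.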

Row | Variant | 8OG:A repair function score
1 | MRKPRAAVGSGHRKQAASQEGRQKHAKNNSQAKPSACDGLARQPEEVVLQASVSSYHLFRDVAEVTAFRGSLLSWYDQEKRDLPWRRRAEDEMDLDRRAYAVWVSEVMLQQTQVATVINYYTGWMQKWPTLQDLASASLEEVNQLWAGLGYQSRGRRLQEGARKVVEELGGHMPRTAETLQQLLPGVGRYTAGAIASIAFGQATGVVDGNVARVLCRVRAIGADPSSTLVSQQLWGLAQQLVDPARPGDFNQAAMELGATVCTPQRPLCSQCPVESLCRARQRVEQEQLLASGSLSGSPDVEECAPNTGQCHLCLPPSEPWDQTLGVVNFPRKASRKPPREESSATCVLEQPGALGAQILLVQRPNSGLLAGLWEFPSVTWEPSEQLQRKALLQELQRWAGPLPATHLRHLGEVVHTFSHIKLTYQVYGLALEGQTPVTTVPPGARWLTQEEFHTAAVSTAMKKVFRVYQGQQPGTCMGSKRSQVSSPCSRKKPRMGQQVLDNFFRSHISTDAHSLNSAAQ [Y152Q] | -0.592
2 | MRKPRAAVGSGHRKQAASQEGRQKHAKNNSQAKPSACDGLARQPEEVVLQASVSSYHLFRDVAEVTAFRGSLLSWYDQEKRDLPWRRRAEDEMDLDRRAYAVWVSEVMLQQTQVATVINYYTGWMQKWPTLQDLASASLEEVNQLWAGLGYRSRGRRLQEGARKVVEELGGHMPRTAETLQQLLPGVGRYTAGAIASIAFGQATGVVDGNVARVLCRVRAIGADPSSTLVSQQLWGLAQQLVDPARPGDFNQAAMELGATVCTPQRPLCSQCPVESLCRARQRVEQEQLLASGSLSGSPDVEECAPNTGQCHLCLPPSEPWDQTLGVVNFPRKASRKPPREESSATCVLEQPGALGAQILLVQRPNSGLLAGLWEFPSVTWEPSEQLQRKALLQELQRWAGPLPATHLRHLGEVVHTFSHIKLTYQVYGLALEGQTPVTTVPPGARWLTQEEFHTAAVSTAMKKVFRVYQGQQPGTCMGSKRSQVSSPCSRKKPRMGQQVLDNFFRSHISTDAHSLNSAAQ [Y152R] | -0.956
3 | MRKPRAAVGSGHRKQAASQEGRQKHAKNNSQAKPSACDGLARQPEEVVLQASVSSYHLFRDVAEVTAFRGSLLSWYDQEKRDLPWRRRAEDEMDLDRRAYAVWVSEVMLQQTQVATVINYYTGWMQKWPTLQDLASASLEEVNQLWAGLGYWSRGRRLQEGARKVVEELGGHMPRTAETLQQLLPGVGRYTAGAIASIAFGQATGVVDGNVARVLCRVRAIGADPSSTLVSQQLWGLAQQLVDPARPGDFNQAAMELGATVCTPQRPLCSQCPVESLCRARQRVEQEQLLASGSLSGSPDVEECAPNTGQCHLCLPPSEPWDQTLGVVNFPRKASRKPPREESSATCVLEQPGALGAQILLVQRPNSGLLAGLWEFPSVTWEPSEQLQRKALLQELQRWAGPLPATHLRHLGEVVHTFSHIKLTYQVYGLALEGQTPVTTVPPGARWLTQEEFHTAAVSTAMKKVFRVYQGQQPGTCMGSKRSQVSSPCSRKKPRMGQQVLDNFFRSHISTDAHSLNSAAQ [Y152W] | -0.762
4 | MRKPRAAVGSGHRKQAASQEGRQKHAKNNSQAKPSACDGLARQPEEVVLQASVSSYHLFRDVAEVTAFRGSLLSWYDQEKRDLPWRRRAEDEMDLDRRAYAVWVSEVMLQQTQVATVINYYTGWMQKWPTLQDLASASLEEVNQLWAGLGYSSRGRRLQEGARKVVEELGGHMPRTAETLQQLLPGVGRYTAGAIASIAFGQATGVVDGNVARVLCRVRAIGADPSSTLVSQQLWGLAQQLVDPARPGDFNQAAMELGATVCTPQRPLCSQCPVESLCRARQRVEQEQLLASGSLSGSPDVEECAPNTGQCHLCLPPSEPWDQTLGVVNFPRKASRKPPREESSATCVLEQPGALGAQILLVQRPNSGLLAGLWEFPSVTWEPSEQLQRKALLQELQRWAGPLPATHLRHLGEVVHTFSHIKLTYQVYGLALEGQTPVTTVPPGARWLTQEEFHTAAVSTAMKKVFRVYQGQQPGTCMGSKRSQVSSPCSRKKPRMGQQVLDNFFRSHISTDAHSLNSAAQ [Y152S] | -1.19
5 | MRKPRAAVGSGHRKQAASQEGRQKHAKNNSQAKPSACDGLARQPEEVVLQASVSSYHLFRDVAEVTAFRGSLLSWYDQEKRDLPWRRRAEDEMDLDRRAYAVWVSEVMLQQTQVATVINYYTGWMQKWPTLQDLASASLEEVNQLWAGLGYTSRGRRLQEGARKVVEELGGHMPRTAETLQQLLPGVGRYTAGAIASIAFGQATGVVDGNVARVLCRVRAIGADPSSTLVSQQLWGLAQQLVDPARPGDFNQAAMELGATVCTPQRPLCSQCPVESLCRARQRVEQEQLLASGSLSGSPDVEECAPNTGQCHLCLPPSEPWDQTLGVVNFPRKASRKPPREESSATCVLEQPGALGAQILLVQRPNSGLLAGLWEFPSVTWEPSEQLQRKALLQELQRWAGPLPATHLRHLGEVVHTFSHIKLTYQVYGLALEGQTPVTTVPPGARWLTQEEFHTAAVSTAMKKVFRVYQGQQPGTCMGSKRSQVSSPCSRKKPRMGQQVLDNFFRSHISTDAHSLNSAAQ [Y152T] | -0.854
6 | MRKPRAAVGSGHRKQAASQEGRQKHAKNNSQAKPSACDGLARQPEEVVLQASVSSYHLFRDVAEVTAFRGSLLSWYDQEKRDLPWRRRAEDEMDLDRRAYAVWVSEVMLQQTQVATVINYYTGWMQKWPTLQDLASASLEEVNQLWAGLGYVSRGRRLQEGARKVVEELGGHMPRTAETLQQLLPGVGRYTAGAIASIAFGQATGVVDGNVARVLCRVRAIGADPSSTLVSQQLWGLAQQLVDPARPGDFNQAAMELGATVCTPQRPLCSQCPVESLCRARQRVEQEQLLASGSLSGSPDVEECAPNTGQCHLCLPPSEPWDQTLGVVNFPRKASRKPPREESSATCVLEQPGALGAQILLVQRPNSGLLAGLWEFPSVTWEPSEQLQRKALLQELQRWAGPLPATHLRHLGEVVHTFSHIKLTYQVYGLALEGQTPVTTVPPGARWLTQEEFHTAAVSTAMKKVFRVYQGQQPGTCMGSKRSQVSSPCSRKKPRMGQQVLDNFFRSHISTDAHSLNSAAQ [Y152V] | -0.573
